What was measured:
[1] = molecular target: TF-glycosylated PDTR MUC1 tandem repeat peptide …-T(TF)-…; assay: antigen ELISA on TF-glycosylated PDTR MUC1 peptide, protein A purified antibodies
[2] = molecular target: Tn-glycosylated PDTR MUC1 tandem repeat peptide …-T(Tn)-…; assay: antigen ELISA on Tn-glycosylated PDTR MUC1 peptide, protein A purified antibodies
Tn-glycosylated PDTR MUC1 tandem repeat peptide …-T(Tn)-…, sequence (peptide, as listed by the source limits assumed): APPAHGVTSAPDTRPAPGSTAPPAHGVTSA

TF-glycosylated PDTR MUC1 tandem repeat peptide …-T(TF)-…, sequence (peptide, as listed by the source limits assumed): as above

Substance: PankoMab N54W (antibody)
- EC50 (read off the curve) [1]: 8 ng/mL
- EC50 (read off the curve) [2]: 10 ng/mL
